Sequences and labels used below:
B1: huAbF46-H4-A2 (antibody, IgG1, V domains shown)
VH: EVQLVESGGGLVQPGGSLRLSCAASGFTFTDYYMSWVRQAPGKGLEWLGFIRNKANGYTTEYSASVKGRFTISRDNSKNTLYLQMNSLRAEDTAVYYCARDNWFAYWGQGTLVTVSS
VL: DIQMTQSPSSLSASVGDRVTITCKSSQSLLASGNQNNYLAWHQQKPGKAPKMLIIWASTRVSGVPSRFSGSGSGTDFTLTISSLQPEDFATYYCGQSYSRPLTFGQGTKVEIKR
notes: IgG1 constant region with U6-HC7 hinge, human kappa light chain; also called IgG from clone L3-2
B2: huAbF46-H4-A1 (antibody, V domains shown)
VH: B1 VH
VL: B1 VL with G95Q, L102Y
notes: also called IgG from clone L3-1
B3: huAbF46-H4-A5 (antibody, IgG1, V domains shown)
VH: B1 VH
VL: B1 VL with G95Q, L102F
notes: IgG1 constant region with U6-HC7 hinge, human kappa light chain; also called IgG from clone L3-5
B4: huAbF46-H4-A3 (antibody, IgG1, V domains shown)
VH: B1 VH
VL: B1 VL with G95A, R100H, L102F, T103S
notes: IgG1 constant region with U6-HC7 hinge, human kappa light chain; also called IgG from clone L3-3

The values that follow come from patent US20210269533A1 (SAMSUNG ELECTRONICS, published 2021).

Positions count from the first letter of the chain named.

Sequence of c-Met on cancer cells (MKN45 gastric cancer cells; NCI-H441 lung cancer cells) (P08581 25-1390): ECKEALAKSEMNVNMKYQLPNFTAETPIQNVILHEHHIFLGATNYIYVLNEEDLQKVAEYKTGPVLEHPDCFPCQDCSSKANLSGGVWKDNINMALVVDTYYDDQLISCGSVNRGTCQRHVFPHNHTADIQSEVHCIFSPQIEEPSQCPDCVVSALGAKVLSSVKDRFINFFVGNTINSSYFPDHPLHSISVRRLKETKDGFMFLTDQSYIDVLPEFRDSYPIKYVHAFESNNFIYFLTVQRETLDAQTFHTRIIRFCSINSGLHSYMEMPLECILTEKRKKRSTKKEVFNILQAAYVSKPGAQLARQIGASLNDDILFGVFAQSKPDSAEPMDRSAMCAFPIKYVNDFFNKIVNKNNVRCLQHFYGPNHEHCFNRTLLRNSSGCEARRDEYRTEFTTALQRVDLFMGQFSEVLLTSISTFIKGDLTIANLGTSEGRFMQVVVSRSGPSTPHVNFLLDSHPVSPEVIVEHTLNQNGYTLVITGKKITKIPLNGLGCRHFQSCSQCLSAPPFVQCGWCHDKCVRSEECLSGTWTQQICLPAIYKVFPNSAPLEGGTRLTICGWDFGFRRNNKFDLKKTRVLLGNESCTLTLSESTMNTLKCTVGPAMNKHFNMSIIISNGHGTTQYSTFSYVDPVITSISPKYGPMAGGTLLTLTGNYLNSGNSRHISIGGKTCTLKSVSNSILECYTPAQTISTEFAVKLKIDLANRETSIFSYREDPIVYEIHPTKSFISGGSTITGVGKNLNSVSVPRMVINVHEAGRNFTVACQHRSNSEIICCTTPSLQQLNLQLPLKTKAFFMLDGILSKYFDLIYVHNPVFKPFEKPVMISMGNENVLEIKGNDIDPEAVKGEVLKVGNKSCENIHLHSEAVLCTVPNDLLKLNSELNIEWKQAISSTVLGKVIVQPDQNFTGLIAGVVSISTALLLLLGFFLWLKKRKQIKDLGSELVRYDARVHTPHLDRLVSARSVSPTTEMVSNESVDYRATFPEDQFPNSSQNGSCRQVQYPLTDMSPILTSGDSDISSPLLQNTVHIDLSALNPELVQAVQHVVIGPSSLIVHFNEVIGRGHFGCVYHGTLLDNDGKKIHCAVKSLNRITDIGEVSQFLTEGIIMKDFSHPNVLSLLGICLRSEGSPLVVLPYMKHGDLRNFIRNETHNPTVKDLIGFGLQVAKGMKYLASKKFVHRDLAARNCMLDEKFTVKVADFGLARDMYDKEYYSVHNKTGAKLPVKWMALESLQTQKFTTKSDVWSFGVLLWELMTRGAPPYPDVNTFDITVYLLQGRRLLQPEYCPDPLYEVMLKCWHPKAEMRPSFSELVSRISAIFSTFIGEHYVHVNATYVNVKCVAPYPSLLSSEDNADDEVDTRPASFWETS

For one assay, the target named is T1, human c-Met protein (human, UniProt P08581 25-932, limits assumed).
T1 construct: also called c-Met antigen
T1 sequence (P08581 25-932 limits assumed): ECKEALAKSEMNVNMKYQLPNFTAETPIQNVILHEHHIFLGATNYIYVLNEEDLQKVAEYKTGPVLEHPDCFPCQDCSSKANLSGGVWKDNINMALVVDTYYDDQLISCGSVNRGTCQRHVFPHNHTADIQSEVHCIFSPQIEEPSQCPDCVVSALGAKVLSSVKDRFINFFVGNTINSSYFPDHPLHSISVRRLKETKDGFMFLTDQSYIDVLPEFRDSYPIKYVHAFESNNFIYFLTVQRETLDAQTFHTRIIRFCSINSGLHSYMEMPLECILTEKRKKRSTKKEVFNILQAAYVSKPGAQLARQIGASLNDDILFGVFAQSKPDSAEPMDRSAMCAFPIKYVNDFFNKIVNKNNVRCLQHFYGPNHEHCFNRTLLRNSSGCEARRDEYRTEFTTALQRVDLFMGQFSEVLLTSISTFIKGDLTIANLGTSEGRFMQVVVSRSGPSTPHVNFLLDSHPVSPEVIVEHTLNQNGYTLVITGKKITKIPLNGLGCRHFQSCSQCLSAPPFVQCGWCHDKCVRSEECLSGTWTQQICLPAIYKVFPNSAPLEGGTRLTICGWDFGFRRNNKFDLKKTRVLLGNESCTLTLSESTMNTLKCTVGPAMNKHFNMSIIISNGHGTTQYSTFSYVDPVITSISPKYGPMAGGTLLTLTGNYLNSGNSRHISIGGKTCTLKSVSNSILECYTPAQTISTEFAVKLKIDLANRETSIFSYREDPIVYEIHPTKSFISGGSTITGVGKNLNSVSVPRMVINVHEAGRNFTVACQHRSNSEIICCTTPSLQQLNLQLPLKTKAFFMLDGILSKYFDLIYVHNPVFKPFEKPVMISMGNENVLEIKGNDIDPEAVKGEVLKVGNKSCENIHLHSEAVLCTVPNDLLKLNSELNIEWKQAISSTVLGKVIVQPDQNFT
In words: SPR (Biacore), ratio of KD values of Table 3. As for the experimental part: (§1) Affinities of the 4 types of antibodies against c-Met antigen prepared in Example 7 were measured by using a Biacore (GE healthcare). About 80 to 110 RU of each antibody was immobilized on a CM5 chip, 9 different concentrations ranging from 0.39 nM to 100 nM of human c-Met protein, as an antigen, were injected at a rate of 30 ul/min to obtain kₒₙ values and koff values as shown in Table 3. Then, KD values were calculated based thereon.
For the molecule B1, the “fold improvement of affinity (against huAbF46)” value amounted to 5 times.
B2: the “fold improvement of affinity (against huAbF46)” value was 37 times.

Another assay addresses c-Met on cancer cells (MKN45 gastric cancer cells; NCI-H441 lung cancer cells) (human, UniProt P08581 25-1390). In words: cell-based or functional assay.
On to B3, for which the “BrdU assay on NCI-H441 cells (agonism); safety improved by, at 10 ug/ml” value stood at 21% and the “degree of degradation of c-Met (total c-Met ELISA, MKN45 cells, 5 ug/ml, 24 h), increase compared to huAbF46” value is around 28%.
On the same counts, the results for B1 are 28% and around 28%.
On the same counts, the results for B2 are 25% and around 37%.
The like results for B4 were, in that order, 13% and around 28%.

The target in the next assay is T1, human c-Met protein. In words: SPR (Biacore), antibody immobilized on CM5 chip, human c-Met protein injected at 0.39-100 nM. As for the experimental part:
as §1
In general terms: Surface plasmon resonance follows binding to a sensor surface in real time, without labels.
Molecule B3 registered a Kd of 0.42 nM, an off-rate constant (koff) of 0.00024 s⁻¹ and a kon of 572000 M⁻¹ s⁻¹.
B1: the affinity, expressed as Kd, was 0.5 nM; the off-rate (koff) was determined as 0.000253 s⁻¹; the kon stood at 502000 M⁻¹ s⁻¹.
The like results for B4 were, in that order, 0.34 nM, 0.000143 s⁻¹ and 419000 M⁻¹ s⁻¹.

As usually defined, the Kd is the concentration at which binding is half-saturated. Read a low Kd as higher affinity. Usually koff stands for a measure of how fast the partners let go of each other. What is called kon is the rate constant with which the complex forms. A high value points to fast association.
